Where two headings read alike, the source gives them in different places.
T1: ABI1 (Arabidopsis thaliana, UniProt P49597+Q8H1R0)
T1 sequence (P49597 1-434): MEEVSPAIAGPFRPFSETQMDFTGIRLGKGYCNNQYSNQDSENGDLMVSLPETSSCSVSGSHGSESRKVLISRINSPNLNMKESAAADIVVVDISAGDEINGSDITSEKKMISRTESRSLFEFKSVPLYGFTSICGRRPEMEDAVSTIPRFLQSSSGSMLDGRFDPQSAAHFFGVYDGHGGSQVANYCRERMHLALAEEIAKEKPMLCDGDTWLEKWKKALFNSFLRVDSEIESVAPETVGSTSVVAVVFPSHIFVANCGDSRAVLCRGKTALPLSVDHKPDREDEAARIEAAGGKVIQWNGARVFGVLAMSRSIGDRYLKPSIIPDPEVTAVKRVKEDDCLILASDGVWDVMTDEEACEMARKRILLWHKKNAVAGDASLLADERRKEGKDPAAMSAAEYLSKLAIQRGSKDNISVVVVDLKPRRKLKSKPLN
T1 sequence (Q8H1R0 1-183): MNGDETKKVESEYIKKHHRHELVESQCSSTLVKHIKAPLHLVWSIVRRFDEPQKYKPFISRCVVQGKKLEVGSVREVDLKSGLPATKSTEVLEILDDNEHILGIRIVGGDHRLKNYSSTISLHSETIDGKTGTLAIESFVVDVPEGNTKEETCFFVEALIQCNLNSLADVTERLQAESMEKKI


Tests used:
ABI1 [1] = experiment: Phosphatase activity assay (pNPP) with purified PP2Cs and PYLs; format: biochemical, Arabidopsis thaliana; conditions: in the presence of 10 μM ABA; ABI1 and PYLs 0.3 μM
Description: The inhibition by PYL13 is ABA-independent, whereas the inhibition by PYR1 and PYL2 is ABA-induced (FIG. 4B). […] The phosphatase activities of PP2CA, ABI1, and ABI2 were measured in the absence or presence of ABA (1.25 μM), and with or without PYLs. The concentration of PP2Cs and PYLs was 0.3 μM. The A405 value of reaction without PP2C was set as 0% and that of the reaction with PP2C but without ABA and PYLs was set as 100%. Error bars indicate s.e.m. (n=6 for PP2CA and ABI2, and n=3 for ABI1).
To test the functional significance of potential heterodimer formation between PYL13 and other PYLs, the abilities of PYL1 and PYL2 and the protein complexes PYL13-PYL1 and PYL13-PYL2 to inhibit the phosphatase activity of ABI1 were compared using purified recombinant proteins and the synthetic phosphatase substrate pNPP. […] The phosphatase activity of ABI1 was measured (using pNPP) in the absence or presence of 10 μM ABA, with or without PYLs, and with PYL13-PYL dimers. The concentration of ABI1 and PYLs was 0.3 μM. The A405 value of reaction without ABI1 was set as 0% and that of the reaction with ABI1 but without ABA and PYLs was set as 100%. Error bars indicate s.e.m. (n=6). In the presence of 10 μM ABA, ABI1 phosphatase activity was reduced to 67±6% by PYL1 but only to 88±8% by PYL13-PYL1. In the presence of 10 μM ABA, ABI1 phosphatase activity was reduced to 50±3% by PYL2 but only to 78±10% by PYL13-PYL2.
Phosphatase activity was measured using the colorimetric substrate p-nitrophenyl phosphate (pNPP, SIGMA). Reactions were performed in a reaction buffer containing 50 mM Tris-HCl, pH 7.5, 25 mM Mg(OAc)2, 2 mM MnCl2, 0.5 mM EGTA, 0.5% β-mercaptoethanol, and 0.5% BSA. ABA and PYLs were added as indicated. The concentration of PP2Cs and PYLs was 0.3 μM. Reactions were initiated by the addition of pNPP to a final concentration of 50 mM. The hydrolysis of pNPP was measured by following the absorbance at 405 nm (A405). Because His-PYL13 is difficult to purify, is prone to degradation, and rapidly loses activity, newly purified PYL13 was used for the phosphatase activity assay.

ABI1 [2] = target: T1, ABI1; conditions: read-out: dissociation constant (Kd) of PYL10-ABI1 interaction, cited from earlier work

Molecule | ABI1 phosphatase activity reduced to (ABI1 [1]) [%] | Kd (ABI1 [2]; with ABA) [nM] | Kd (ABI1 [2]; without ABA) [nM]
PYL1: Arabidopsis thaliana PYL family ABA receptor protein PYL1, AT5G46790 | 67±6 | – | –
PYL13-PYL1: protein complex (heterodimer) of purified recombinant PYL13 and PYL1 | 88±8 | – | –
PYL13-PYL2: protein complex (heterodimer) of purified recombinant PYL13 and PYL2 | 78±10 | – | –
PYL10: Arabidopsis thaliana PYL family protein PYL10, AT4G27920 (protein, listed as Arabidopsis thaliana) MNGDETKKVESEYIKKHHRHELVESQCSSTLVKHIKAPLHLVWSIVRRFDEPQKYKPFISRCVVQGKKLEVGSVREVDLKSGLPATKSTEVLEILDDNEHILGIRIVGGDHRLKNYSSTISLHSETIDGKTGTLAIESFVVDVPEGNTKEETCFFVEALIQCNLNSLADVTERLQAESMEKKI | – | 20 | 1200

— patent US9518268B2, “Drought tolerant transgenic plants and method of making same” (PURDUE RESEARCH FOUNDATION, priority 2013, dated 2016)
